The experiment addresses Smad3. Briefly: cell-based or functional assay.

As for “scleraxis (mouse Scx expressed from pECE-HA-FLAG-Scx) (from UniProt Q64124 1-207)”, the activation of the collagen 1α2 proximal promoter (luciferase assay, NIH 3T3 fibroblasts co-transfected with Scx and Smad3) was found to be 35 % increase.

Source of the values: patent US20140288003A1.
